Assay in all cases: EMSA; 2 ug nuclear extract or 1 ul ivt protein, 0.1 ng 32P ds oligo, 1 ug poly(dI-dC); antiserum preincubation 15 min at room temperature; buffer, salt and pH not given (by reference)
In general terms: A gel shift assay detects complexes by their altered migration in electrophoresis.

For one data set, the target named is PDX1 (STF-1) (UniProt P52947 1-283). The following applies: protein: recombinant; label: 32P (Klenow); only top strand given; 5' GATC end, Klenow labelled.
The target in data set [1] is T1, PBX1a (long isoform);PREP1 (;, UniProt P41778;P55347 1-430;1-436, |).
T1 sequence 1: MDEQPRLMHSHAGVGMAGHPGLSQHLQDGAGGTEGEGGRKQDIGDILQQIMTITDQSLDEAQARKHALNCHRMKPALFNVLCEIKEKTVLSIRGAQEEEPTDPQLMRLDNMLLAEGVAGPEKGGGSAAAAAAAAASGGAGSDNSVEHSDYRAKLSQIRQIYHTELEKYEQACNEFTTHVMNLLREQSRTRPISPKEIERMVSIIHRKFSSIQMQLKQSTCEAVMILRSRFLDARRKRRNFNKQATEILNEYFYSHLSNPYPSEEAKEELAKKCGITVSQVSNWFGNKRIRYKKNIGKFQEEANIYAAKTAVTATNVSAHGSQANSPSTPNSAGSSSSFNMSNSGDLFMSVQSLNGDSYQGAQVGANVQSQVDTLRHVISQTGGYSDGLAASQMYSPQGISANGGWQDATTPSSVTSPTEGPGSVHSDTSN
T1 sequence 2: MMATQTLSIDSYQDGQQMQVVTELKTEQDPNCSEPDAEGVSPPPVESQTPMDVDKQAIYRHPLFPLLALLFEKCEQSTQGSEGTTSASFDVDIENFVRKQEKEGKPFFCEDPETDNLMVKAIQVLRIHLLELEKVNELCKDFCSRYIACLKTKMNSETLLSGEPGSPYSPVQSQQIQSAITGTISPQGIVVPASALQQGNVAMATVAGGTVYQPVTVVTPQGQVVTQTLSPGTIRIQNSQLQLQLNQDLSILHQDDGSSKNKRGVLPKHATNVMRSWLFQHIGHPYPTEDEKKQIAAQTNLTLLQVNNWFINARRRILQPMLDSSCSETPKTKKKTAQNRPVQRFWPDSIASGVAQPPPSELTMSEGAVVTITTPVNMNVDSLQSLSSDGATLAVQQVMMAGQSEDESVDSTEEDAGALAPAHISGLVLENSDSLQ
The settings on record: protein: ivt;ivt; tags: ;; copies: 1;1; label: 32P (Klenow); only top strand given; 5' GATC end, Klenow labelled.

The target in data set [2] is PBX1a (long isoform);PREP1;PDX1 (STF-1) (;;, UniProt P41778;P55347;P52947 1-430;1-436;1-283, ||). The following applies: protein: ivt;ivt;recombinant; tags: ;;; copies: 1;1;1; label: 32P (Klenow); only top strand given; 5' GATC end, Klenow labelled.
Sequence of PBX1a (long isoform);PREP1;PDX1 (STF-1) (P52947 whole entry, canonical isoform, one chain of several): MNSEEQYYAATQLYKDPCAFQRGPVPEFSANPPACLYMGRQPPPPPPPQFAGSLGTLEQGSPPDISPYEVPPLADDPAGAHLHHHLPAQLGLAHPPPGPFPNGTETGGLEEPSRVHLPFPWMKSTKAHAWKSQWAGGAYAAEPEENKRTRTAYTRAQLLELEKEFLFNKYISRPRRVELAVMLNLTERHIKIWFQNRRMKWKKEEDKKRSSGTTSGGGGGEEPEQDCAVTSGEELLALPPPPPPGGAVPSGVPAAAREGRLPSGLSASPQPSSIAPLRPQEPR

Sequence of PDX1 (STF-1) (P52947 whole entry, canonical isoform): as the sequence (P52947 whole entry, canonical isoform, one chain of several) above

B1: PC3b (dsDNA)
DNA 1: GATCTAGCTCTTAATTGTGGTT
DNA 2: AACCACAATTAAGAGCTAGATC
On to B1, for which the binding result with PDX1 (STF-1) is “binds”.

B2: PA1b (dsDNA)
DNA 1: GATCGCATCACGATCAATCACAGCGCT
DNA 2: AGCGCTGTGATTGATCGTGATGCGATC
In the case of B2, the binding result in data set [1] and in data set [2] was “binds” each time.

These data come from PMC2409314, “Expression of zebrafish pax6b in pancreas is regulated by two enhancers containing highly conserved cis-elements bound by PDX1, PBX and PREP factors”.
